{
  "source": "paper PMC12450071",
  "about": "(Cell reports, 2025)",
  "binders": {"B1": {"name": "GFP-fused Fab of the neutralizing antibody CR1-28 (Fab, V domains shown)", "VH": "QVQLVESGGGVVQPGRSLRLSCAASGFTFSSSAMHWVRQAPGKGLEWVAVIWSDGSNENYADSVKGRFTISRDNSKNTLYLQMSSLRAEDTAVYYCATDKTYVSGYTSTWYYFNYWGQGTLVTVSG", "VL": "DIQMTQSPSTLSASVGDRVTITCRASQSIDNWLAWYQQKPGKAPKLLIYTASRLESGVPSRFSGSGSGTEFTLTISSLQPDDFATYYCQHRTFGQGTKVEIK", "notes": "also called CR1–28Fab; GFP-fused CR1–28Fab; source: HEK293T, transfected, purified from culture media (Ni-NTA)"}, "B2": {"name": "GB03-BE08 (J199) Fab (Fab, V domains shown)", "VH": "VALVESGGGLVQPGGSLKLSCASGASFSNAGMSWVRQTPDRRLELVAAINRDGDITYHPDSVKGRFTISRDNAKNTLYLQMSSLKSEDTAMYYCAREDYYGLYFYVMDYWGQGTSVTVA", "VL": "QIVLTQSPAIMSASPGEKVTITCSASSIVSYMHWFQQKPGTSPKLWIYGTSNLASGVPARFSGSGSGTSYSLTISRMEAEDAATYYCQQRNSYPPTFGGGTKLEIK", "notes": "source: bought: BEI Resources (J199), ficin digested, dialyzed into TBS pH 8"}},
  "target": "JUNV GP1 (receptor-binding domain), subunit within the GPC on PV membranes (Junin mammarenavirus, strain MC2 …, UniProt P26313)",
  "sequence (P26313 whole entry, looked up, the tested form may be a part)": "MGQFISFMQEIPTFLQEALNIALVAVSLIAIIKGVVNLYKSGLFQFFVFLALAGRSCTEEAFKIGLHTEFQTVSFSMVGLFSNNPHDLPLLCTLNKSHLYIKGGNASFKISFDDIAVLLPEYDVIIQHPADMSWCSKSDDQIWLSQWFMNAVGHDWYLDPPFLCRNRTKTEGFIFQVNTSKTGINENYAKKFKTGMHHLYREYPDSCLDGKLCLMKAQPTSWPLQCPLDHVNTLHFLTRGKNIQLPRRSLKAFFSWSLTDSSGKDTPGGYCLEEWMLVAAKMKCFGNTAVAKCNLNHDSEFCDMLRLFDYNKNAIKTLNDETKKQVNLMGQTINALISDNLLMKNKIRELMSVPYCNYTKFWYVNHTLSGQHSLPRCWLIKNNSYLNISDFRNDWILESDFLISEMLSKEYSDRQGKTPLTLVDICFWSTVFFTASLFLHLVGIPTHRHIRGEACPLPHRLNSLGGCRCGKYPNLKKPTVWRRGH",
  "experiment": "cryo-EM structure",
  "conditions": "one partner purified",
  "data": [
    {"binder": "B1", "values": [
      {"measurement": "binding result", "result": "binds"}
    ]},
    {"binder": "B2", "values": [
      {"measurement": "binding result", "result": "binds"}
    ]}
  ]
}
